Patent publication US20230408517A1 (BIO TECHNE, published 2023)
Where a chain is given by its changes, count along the chain named. Read-outs that look alike come from different tables or passages of the source.

How the values were obtained:
[1] = molecular target: rSARS2 RBD aa319-541, N439K, C-His (SARS-CoV-2, UniProt P0DTC2 319-541); assay: flow cytometry, blocking of binding to hACE-2 cells
[2] = molecular target: rSARS2-B.1.617.2 S aa16-1211 10+4x aa mut., C-His (SARS-CoV-2, UniProt P0DTC2 16-1211); assay: as above
[3] = molecular target: rSARS2-B.1.1.7 S aa16-1211 4x aa mut., C-His (SARS-CoV-2, UniProt P0DTC2 16-1211); assay: as above
[4] = molecular target: T1, BR P.1 variant RBD (R319-F541 with K417T, E484K, N501Y), C-terminal 6-His (SARS-CoV-2, UniProt P0DTC2 319-541); assay: as above
[5] = molecular target: T2, IN v2 variant RBD (R319-F541 with L452R, T478K) (SARS-CoV-2, UniProt P0DTC2 319-541); assay: as above
[6] = molecular target: rSARS2-B.1.1.7 S aa16-1211 2x aa mut., C-His (SARS-CoV-2, UniProt P0DTC2 16-1211); assay: as above
[7] = molecular target: T3, recombinant SARS-CoV-2 spike S1 RBD (R319-F541), C-terminal 6-His (SARS-CoV-2, UniProt P0DTC2 319-541); assay: as above
[8] = molecular target: T4, UK variant RBD (R319-F541 with N501Y), C-terminal 6-His (SARS-CoV-2, UniProt P0DTC2 319-541); assay: sandwich dipstick, detector Ab5-AuNP
[9] = molecular target: T1, BR P.1 variant RBD (R319-F541 with …); assay: sandwich dipstick, detector Ab5-AuNP
[10] = molecular target: T5, SA variant RBD (R319-F541 with K417N, E484K, N501Y), C-terminal 6-His (SARS-CoV-2, UniProt P0DTC2 319-541); assay: sandwich dipstick, detector Ab5-AuNP
[11] = molecular target: T3, recombinant SARS-CoV-2 spike S1 RBD …; assay: sandwich dipstick, detector Ab5-AuNP
[12] = molecular target: T4, UK variant RBD (R319-F541 with N501Y), …; assay: lateral flow NC50, RBD-AuNP vs immobilised ACE2
[13] = molecular target: T1, BR P.1 variant RBD (R319-F541 with …); assay: lateral flow NC50, RBD-AuNP vs immobilised ACE2
[14] = molecular target: T5, SA variant RBD (R319-F541 with K417N, …); assay: lateral flow NC50, RBD-AuNP vs immobilised ACE2
[15] = molecular target: T3, recombinant SARS-CoV-2 spike S1 RBD …; assay: lateral flow NC50, RBD-AuNP vs immobilised ACE2
[16] = molecular target: T4, UK variant RBD (R319-F541 with N501Y), …; assay: lateral flow NC50, RBD-AuNP vs immobilised ACE2; remark: listed apart in the source
[17] = molecular target: BR P.2 variant RBD (R319-F541 with E484K) (SARS-CoV-2, UniProt P0DTC2 319-541); assay: lateral flow NC50, RBD-AuNP vs immobilised ACE2
[18] = molecular target: T1, BR P.1 variant RBD (R319-F541 with …); assay: lateral flow NC50, RBD-AuNP vs immobilised ACE2; remark: listed apart in the source
[19] = molecular target: L452R RBD (R319-F541 with L452R) (SARS-CoV-2, UniProt P0DTC2 319-541); assay: lateral flow NC50, RBD-AuNP vs immobilised ACE2
[20] = molecular target: T2, IN v2 variant RBD (R319-F541 with …); assay: lateral flow NC50, RBD-AuNP vs immobilised ACE2
[21] = molecular target: K417E RBD (R319-F541 with K417E) (SARS-CoV-2, UniProt P0DTC2 319-541); assay: lateral flow NC50, RBD-AuNP vs immobilised ACE2
[22] = molecular target: T5, SA variant RBD (R319-F541 with K417N, …); assay: lateral flow NC50, RBD-AuNP vs immobilised ACE2; remark: listed apart in the source
[23] = molecular target: IN v1 variant RBD (R319-F541 with L452R, E484Q) (SARS-CoV-2, UniProt P0DTC2 319-541); assay: lateral flow NC50, RBD-AuNP vs immobilised ACE2
[24] = molecular target: T478K RBD (R319-F541 with T478K) (SARS-CoV-2, UniProt P0DTC2 319-541); assay: lateral flow NC50, RBD-AuNP vs immobilised ACE2
[25] = molecular target: T3, recombinant SARS-CoV-2 spike S1 RBD …; assay: lateral flow NC50, RBD-AuNP vs immobilised ACE2; remark: listed apart in the source
[26] = molecular target: T3, recombinant SARS-CoV-2 spike S1 RBD …; assay: flow cytometry, blocking of binding to hACE-2 cells; remark: listed apart in the source
[27] = molecular target: T4, UK variant RBD (R319-F541 with N501Y), …; assay: sandwich dipstick, detector Ab4-AuNP
[28] = molecular target: T1, BR P.1 variant RBD (R319-F541 with …); assay: sandwich dipstick, detector Ab4-AuNP
[29] = molecular target: T5, SA variant RBD (R319-F541 with K417N, …); assay: sandwich dipstick, detector Ab4-AuNP
[30] = molecular target: T3, recombinant SARS-CoV-2 spike S1 RBD …; assay: sandwich dipstick, detector Ab4-AuNP

B1: 1035709 (antibody, V domains shown)
VH: EVQLQQSGPELVKPGASVKISCKTSGYTFTEYTMHWVKQSHGKSLEWIGGINPNIVDTGYNQKFKGKATLTVDKSSSTAYMELRSLTSEDSAVYYCARDGYPLYYAMDYWGQGTSVTVSS
VL: DIQMTQSPSSLSASLGERVSLTCRASQEISGYLSWLQQKPDGTIKRLIYAASTLDSGVPKRFSGSRSGSDYSLTISSLESEDFADYYCLQYASYPWTFGGGTKLEIK
Q: B1 was tested. Which percent blocking [1] did it give?
A: 90.8%

Q: What about the percent blocking [2] of the same binder?
A: 58.8%

Q: What about the percent blocking [3] of the same binder?
A: 80.7%

Q: And the percent blocking [4]?
A: 90%

Q: And the percent blocking [5]?
A: 5.3%

Q: What about the percent blocking [6] of the same binder?
A: 92.1%

Q: And the percent blocking [7]?
A: 94.7%

Q: And the detection sensitivity [8]?
A: 0.001 µg/mL

Q: And the detection sensitivity [9]?
A: 0.001 µg/mL

Q: What about the detection sensitivity [10] of the same binder?
A: 0.001 µg/mL

Q: And the detection sensitivity [11]?
A: 0.001 µg/mL

Q: What about the IC50 [12] of the same binder?
A: 1.08 µg/mL

Q: And the IC50 [13]?
A: 0.7 µg/mL

Q: What about the IC50 [14] of the same binder?
A: 0.91 µg/mL

Q: What about the IC50 [15] of the same binder?
A: 0.63 µg/mL

Q: What about the IC50 [16] of the same binder?
A: 1.08 µg/mL

Q: What about the IC50 [17] of the same binder?
A: 0.61 µg/mL

Q: And the IC50 [18]?
A: 0.7 µg/mL

Q: What about the IC50 [19] of the same binder?
A: 0.92 µg/mL

Q: And the IC50 [20]?
A: 2.33 µg/mL

Q: And the IC50 [21]?
A: 0.38 µg/mL

Q: And the IC50 [22]?
A: 0.91 µg/mL

Q: And the IC50 [23]?
A: 0.66 µg/mL

Q: And the IC50 [24]?
A: 1.35 µg/mL

Q: And the IC50 [25]?
A: 0.63 µg/mL

Q: What about the percent blocking [26] of the same binder?
A: 94.7%

B2: 1035762 (antibody, V domains shown)
VH: B1 VH with I55N, V56G, S88F
VL: B1 VL with S34C, G57A, Y86F
Q: B2 was tested. Which percent blocking [1] did it give?
A: 42.7%

Q: What about the percent blocking [2] of the same binder?
A: 18.7%

Q: And the percent blocking [3]?
A: 75.2%

Q: What about the percent blocking [4] of the same binder?
A: 40.5%

Q: And the percent blocking [5]?
A: 1.5%

Q: What about the percent blocking [6] of the same binder?
A: 75.7%

Q: What about the percent blocking [7] of the same binder?
A: 94.1%

Q: And the detection sensitivity [8]?
A: 0.001 µg/mL

Q: What about the detection sensitivity [9] of the same binder?
A: 0.001 µg/mL

Q: And the detection sensitivity [10]?
A: 0.001 µg/mL

Q: And the detection sensitivity [11]?
A: 0.001 µg/mL

Q: And the IC50 [12]?
A: 0.95 µg/mL

Q: What about the IC50 [13] of the same binder?
A: 0.69 µg/mL

Q: And the IC50 [14]?
A: 0.7 µg/mL

Q: And the IC50 [15]?
A: 0.69 µg/mL

Q: And the IC50 [16]?
A: 0.95 µg/mL

Q: And the IC50 [17]?
A: 0.85 µg/mL

Q: And the IC50 [18]?
A: 0.69 µg/mL

Q: What about the IC50 [19] of the same binder?
A: 0.73 µg/mL

Q: And the IC50 [20]?
A: 2.57 µg/mL

Q: What about the IC50 [21] of the same binder?
A: 0.49 µg/mL

Q: And the IC50 [22]?
A: 0.7 µg/mL

Q: What about the IC50 [23] of the same binder?
A: 0.77 µg/mL

Q: And the IC50 [24]?
A: 3.77 µg/mL

Q: And the IC50 [25]?
A: 0.69 µg/mL

Q: What about the percent blocking [26] of the same binder?
A: 94.1%

B3: 1035419 (antibody, V domains shown)
VH: QVQLKQSGAELVRPGASVKLSCKTSGYIFTSYWIHWIKQRSGQGLEWIARIYPGTGSTYNNEKFKGKATLTADKSSSTAYMQLSSLKSEDSAVYFCARGEDNLYFYAMDYWGQGTSVTVSS
VL: NIVLTQSPASLAVSLGQRATISCRASESVDSYGASFMHWCQQKPGQPPKLLIYLASNLESGVPARFSGSGSRTDFTLTIDPVEADDAATYYCQQNYEDPWTFGGGTKLEIK
Q: What does the source list for B3?
A: percent blocking [1]: 69.3%; percent blocking [2]: 78.5%; percent blocking [3]: 33.3%; percent blocking [4]: 8.7%; percent blocking [5]: 72.5%; percent blocking [6]: 21.8%; percent blocking [7]: 90.2%; IC50 [12]: 27.6 µg/mL; IC50 [13]: 44.8 µg/mL; IC50 [14]: 24 µg/mL; IC50 [15]: 3.27 µg/mL; detection sensitivity [27]: 0.01 µg/mL; detection sensitivity [28]: 0.01 µg/mL; detection sensitivity [29]: 0.01 µg/mL; detection sensitivity [30]: 0.01 µg/mL; IC50 [16]: 27.6 µg/mL; IC50 [17]: 6.48 µg/mL; IC50 [18]: 44.8 µg/mL; IC50 [19]: 20.6 µg/mL; IC50 [20]: 33.2 µg/mL; IC50 [21]: 1.51 µg/mL; IC50 [22]: 24 µg/mL; IC50 [23]: 16.5 µg/mL; IC50 [24]: 9.01 µg/mL; IC50 [25]: 3.27 µg/mL; percent blocking [26]: 90.2%

B4: 1035740 (antibody, V domains shown)
VH: EVLLQQSGPELVKPGASVKIPCKASGYTFTDYNMDWVKQSHGKSLEWIGDINPNNGFTIYNQKFKGKATLTVDKSSSTAYMELRSLTSEDTAVYYCAREGYGNYFDYWGQGTTLTVSS
VL: DVLLTQSPAILSVSPGERVSFSCRASQSIGTSLHWYQQRTNGSPRLLIKYVSESISGIPSRFSGSGSGTDFTLSINSVESEDIADYYCQQSSSWPTTFGAGTKLELK
Q: For B4, which percent blocking [1] is on record?
A: 96%

Q: And the percent blocking [2]?
A: 89.6%

Q: What about the percent blocking [3] of the same binder?
A: 82.1%

Q: And the percent blocking [4]?
A: 95%

Q: And the percent blocking [5]?
A: 96.5%

Q: And the percent blocking [6]?
A: 94.3%

Q: What about the percent blocking [7] of the same binder?
A: 94.6%

Q: What about the IC50 [12] of the same binder?
A: 1.35 µg/mL

Q: And the IC50 [13]?
A: 1.4 µg/mL

Q: What about the IC50 [14] of the same binder?
A: 1.83 µg/mL

Q: What about the IC50 [15] of the same binder?
A: 1.43 µg/mL

Q: What about the detection sensitivity [27] of the same binder?
A: 0.01 µg/mL

Q: And the detection sensitivity [28]?
A: 0.01 µg/mL

Q: What about the detection sensitivity [29] of the same binder?
A: 0.01 µg/mL

Q: What about the detection sensitivity [30] of the same binder?
A: 0.01 µg/mL

Q: What about the IC50 [16] of the same binder?
A: 1.35 µg/mL

Q: What about the IC50 [17] of the same binder?
A: 1.48 µg/mL

Q: And the IC50 [18]?
A: 1.4 µg/mL

Q: What about the IC50 [19] of the same binder?
A: 1.17 µg/mL

Q: What about the IC50 [20] of the same binder?
A: 1.61 µg/mL

Q: And the IC50 [21]?
A: 1.09 µg/mL

Q: And the IC50 [22]?
A: 1.83 µg/mL

Q: What about the IC50 [23] of the same binder?
A: 1.79 µg/mL

Q: And the IC50 [24]?
A: 1.21 µg/mL

Q: And the IC50 [25]?
A: 1.43 µg/mL

Q: And the percent blocking [26]?
A: 94.6%
